We go through three molecules from PMC10397247.

Test [1] concerns the target T1, APC2237-AA.
T1 chain: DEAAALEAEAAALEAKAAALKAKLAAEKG
As to the kind of experiment: two-hybrid library CCmax.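 Also: natural log of median RNA to DNA barcode read ratio; higher means stronger binding.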 Conditions: mean of both orientations.

The target in test [2] is T2, APC8910-AA.
T2 chain: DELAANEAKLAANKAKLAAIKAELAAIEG
Kind of test: two-hybrid library CCmax.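 Also: natural log of median RNA to DNA barcode read ratio; higher means stronger binding.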 Conditions: mean of both orientations.

The target of test [3] is T3, APC232-AA.
T3 chain: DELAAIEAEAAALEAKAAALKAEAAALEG
As to the kind of experiment: two-hybrid library CCmax.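 Also: natural log of median RNA to DNA barcode read ratio; higher means stronger binding.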 Conditions: mean of both orientations.

For test [4], the target named is T4, 4H716-AA.
T4 chain: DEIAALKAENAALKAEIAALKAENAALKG
As to the kind of experiment: two-hybrid library CCmax.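 Also: natural log of median RNA to DNA barcode read ratio; higher means stronger binding.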 Conditions: mean of both orientations.

For test [5], the target named is T5, APC1434-AA.
T5 chain: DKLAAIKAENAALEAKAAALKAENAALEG
As to the kind of experiment: two-hybrid library CCmax.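 Also: natural log of median RNA to DNA barcode read ratio; higher means stronger binding.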 Conditions: mean of both orientations.

Test [6] addresses T6, 4H807-AA.
T6 chain: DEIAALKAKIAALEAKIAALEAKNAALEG
As to the kind of experiment: two-hybrid library CCmax.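 Also: natural log of median RNA to DNA barcode read ratio; higher means stronger binding.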 Conditions: mean of both orientations.

Test [7] has as its target T7, APC9096-AA.
T7 chain: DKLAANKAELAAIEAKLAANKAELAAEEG
As to the kind of experiment: two-hybrid library CCmax. Conditions: mean of both orientations.

Test [8] deals with T8, APC7099-AA.
T8 chain: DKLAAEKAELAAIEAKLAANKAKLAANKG
Kind of test: two-hybrid library CCmax. Conditions: mean of both orientations.

The target in test [9] is T9, APC9319-AA.
T9 chain: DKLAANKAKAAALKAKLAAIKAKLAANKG
Kind of test: two-hybrid library CCmax. The following applies: mean of both orientations.

Test [10] deals with T10, 4H733-AA.
T10 chain: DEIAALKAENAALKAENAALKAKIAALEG
Kind of test: two-hybrid library CCmax. Conditions: mean of both orientations.

The target of test [11] is T11, 4H3330-AA.
T11 chain: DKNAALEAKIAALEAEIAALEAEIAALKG
Kind of test: two-hybrid library CCmax. Conditions: mean of both orientations.

Test [12] addresses T12, APC5383-AA.
T12 chain: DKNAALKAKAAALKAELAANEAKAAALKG
Kind of test: two-hybrid library CCmax. The following applies: mean of both orientations.

The target in test [13] is T13, 4H2458-AA.
T13 chain: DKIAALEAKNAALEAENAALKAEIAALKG
Kind of test: two-hybrid library CCmax.

For test [14], the target named is T14, APC4011-AA.
T14 chain: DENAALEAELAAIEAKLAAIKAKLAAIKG
As to the kind of experiment: two-hybrid library CCmax. The following applies: mean of both orientations.

Test [15] has as its target T15, APC6108-AA.
T15 chain: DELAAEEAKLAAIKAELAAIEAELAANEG
Kind of test: two-hybrid library CCmax. Conditions: mean of both orientations.

Test [16] has as its target T16, APC4264-AA.
T16 chain: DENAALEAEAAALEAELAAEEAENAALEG
Kind of test: two-hybrid library CCmax. The following applies: mean of both orientations.

Test [17] has as its target T17, APC2405-AA.
T17 chain: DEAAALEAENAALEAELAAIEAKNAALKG
Kind of test: two-hybrid library CCmax. The following applies: mean of both orientations.

Test [18] deals with T18, APC1015-AA.
T18 chain: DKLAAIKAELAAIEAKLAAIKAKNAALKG
As to the kind of experiment: two-hybrid library CCmax. Conditions: mean of both orientations.

Test [19] deals with T19, APC8191-AA.
T19 chain: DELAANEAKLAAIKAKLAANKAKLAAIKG
Kind of test: two-hybrid library CCmax. The following applies: mean of both orientations.

The target in test [20] is T20, APC3645-AA.
T20 chain: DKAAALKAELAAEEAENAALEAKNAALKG
Kind of test: two-hybrid library CCmax. Conditions: mean of both orientations.

Test [21] deals with T21, APC4436-AA.
T21 chain: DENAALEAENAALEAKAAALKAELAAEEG
Kind of test: two-hybrid library CCmax. Conditions: mean of both orientations.

In test [22] the target is T22, O5-bP.
T22 chain: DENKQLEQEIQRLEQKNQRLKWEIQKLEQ
Kind of test: two-hybrid library CCNG1.

Test [23] concerns the target T23, O8-bP.
T23 chain: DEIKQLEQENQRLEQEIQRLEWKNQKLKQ
As to the kind of experiment: two-hybrid library CCNG1.

In test [24] the target is T24, O14-bP.
T24 chain: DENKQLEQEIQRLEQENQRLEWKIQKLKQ
As to the kind of experiment: two-hybrid library CCNG1.

Test [25] concerns the target T25, O2-bP.
T25 chain: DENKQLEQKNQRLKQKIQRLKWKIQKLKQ
As to the kind of experiment: two-hybrid library CCNG1.

Test [26] deals with T26, O9-bP.
T26 chain: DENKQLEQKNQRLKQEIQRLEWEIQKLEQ
Kind of test: two-hybrid library CCNG1.

In test [27] the target is T27, O13-bP.
T27 chain: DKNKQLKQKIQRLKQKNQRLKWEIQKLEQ
As to the kind of experiment: two-hybrid library CCNG1.

Test [28] has as its target T28, O15-bP.
T28 chain: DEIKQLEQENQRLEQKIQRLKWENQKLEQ
As to the kind of experiment: two-hybrid library CCNG1.

Test [29] addresses T29, O3-bP.
T29 chain: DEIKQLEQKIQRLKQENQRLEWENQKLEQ
Kind of test: two-hybrid library CCNG1.

For test [30], the target named is T30, O4-bP.
T30 chain: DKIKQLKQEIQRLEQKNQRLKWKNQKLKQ
As to the kind of experiment: two-hybrid library CCNG1.

Test [31] has as its target T31, O6-bP.
T31 chain: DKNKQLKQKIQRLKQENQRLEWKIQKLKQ
Kind of test: two-hybrid library CCNG1.

The target in test [32] is T32, O7-bP.
T32 chain: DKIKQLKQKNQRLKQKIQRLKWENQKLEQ
As to the kind of experiment: two-hybrid library CCNG1.

In test [33] the target is T33, O16-bP.
T33 chain: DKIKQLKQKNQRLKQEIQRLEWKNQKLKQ
Kind of test: two-hybrid library CCNG1.

In the case of DKIAALEAKNAALEAENAALKAEIAALKG [4H2458-AA], the interaction score in test [1] is -1.44; in test [2], -1.49; in test [3], -1.85; in test [4], -0.991; in [5], -1.22; in test [6], -1.17. The interaction score in [7] was -1.34; in test [8] it was -1.31; in [9], -2.07; in test [10], -1.61; in test [11], -1.38; in test [12], -1.7. Also, the interaction score in test [13] is 2.24; in [14], -0.914; in test [15], -1.71; in test [16] it was -1.79; in test [17] it was -1.59; in test [18], -1.95. The interaction score in [19] was -2.11; in test [20] it was -1.47; in test [21], -1.67.
Turning to DKNKQLKQKIQRLKQKNQRLKWEIQKLEQ [O13-bP], the interaction score in test [22] was -0.814; in test [23] it was -0.609; in [24], 1.35; in test [25], -1.3; in [26], -1.05; in test [27] it was -2.25. The interaction score in test [28] was -0.599; in [29] it was -1.76; in test [30] it was -0.851; in test [31] it was -0.094; in [32] it was -1.19; in test [33], -1.17.
For the molecule DENKQLEQEIQRLEQENQRLEWKIQKLKQ [O14-bP], the interaction score was 1.11 in [22]; -2.05 in [23]; -1.46 in test [24]; -0.77 in [25]; -0.215 in test [26]; -0.0315 in test [28]. The interaction score in test [29] is -0.787; in test [30] it was -1.04; in [31] it was 1.82; in test [32], 0.0513; in [33], 1.73.
